These results are taken from patent US20220089741A1 (HUABO BIOPHARM SHANGHAI, published 2022).

For one test, the target named is T1, rhPD-L1-his protein (monkey, UniProt G7PSE7 19-238).
T1 construct: Bought protein; also called monkey PD-L1 protein; Sino Biological #90251-C08H; not shown: C-terminal His tag
Kind of test: ELISA, rhPD-L1-his coated. In general terms: ELISA stands for enzyme-linked immunosorbent assay.

The target of test [1] is T2, huPD-L1-his protein (human, UniProt Q9NZQ7 19-239).
T2 construct: Bought protein; also called human PD-L1-His protein; human PD-L1 protein; not shown: His tag
Kind of test: ELISA, huPD-L1-his coated at 1 ug/ml. The protocol: Specifically, 1 ug/ml huPD-L1-his protein (purchased from Sino Biological, #10084-H08H) was added to the ELISA plate at 50 ul/well, and coated at 2-8° C. for more than 12 hours. The raffinate of plate coating was discarded, 200 ul of 3% milk was added to each well, and blocked at room temperature for 1 hour. PBST not less than 200 uL was added to each well for washing once. The antibody sample to be tested was diluted to 100 ug/ml, then diluted 5 times for 11 gradients, and added to the ELISA plate at 100 uL/well. After incubation at room temperature for 1 hour, PBST no less than 200 uL was added to each well. After washing for 4 times, HRP-conjugated Rabbit Anti-Human IgG Fc Antibody (Luoyang Baiaotong Experimental Material Center, #C030222) diluted 25000 times with 3% milk-PBST was added as 100 uL/well. After incubating at room temperature for 1 hour, PBST not less than 200 uL was added to each well, washed 6 times and beat dry. 100 uL of TMB Substrate was added to each well. After 5 minutes of reaction at room temperature, 50 uL/well of 2M H2504 was added to terminate the reaction. The ELISA plate with stopped reaction was placed on the microplate reader, and the absorbance of OD450 value was read at 450 nm wavelength.

For the next test, the target named is T3, huPD-L1-moFc (human, UniProt Q9NZQ7 19-238, limits assumed).
T3 construct: also called 800023, Huabo Bio; not shown: mouse Fc
Description: flow cytometry competition: blocking of huPD-L1-moFc binding to cells expressing human PD-1. As for the experimental part: The suspension of cells (3C2-huPD-1-6F4, Huabo Bio) expressing human PD-1 in the logarithmic growth phase was centrifuged (1000 rpm×5 min) to discard the culture medium, and the cells were resuspended with 1% BSA/PBS to a living cell density of 1×10⁶/ml. […] The reacted 96-well U-shaped plate was resuspended with 1% BSA/PBS, centrifuged (300 g×3 min) to discard the supernatant, and washed like this for twice. […] The reacted 96-well U-shaped plate was resuspended with 1% BSA/PBS, centrifuged (300 g×3 min) to discard the supernatant, and washed like this for three times. Finally, the plate was resuspended with 100 uL of 1% BSA/PBS for each well and the fluorescence intensity of the first channel was detected by flow cytometry (BD, #Accuri C6).

Test [2] addresses T2, huPD-L1-his protein. Kind of test: SPR (Biacore 8K), antibody captured on anti-human capture CM5 chip, huPD-L1 as analyte, 1:1 model. The protocol: In this experiment, SPR method was used to determine antibody-antigen binding kinetics and affinity.
Anti-Human Capture-CM5 chip (GE, #BR-1005-30) was prepared according to the coupling method of Human Antibody Captrue Kit (GE, #BR-1008-39) and Amino Coupling Kit (GE, BR-1000-50). The chip was balanced at room temperature for 20-30 min, and loaded into a Biacore 8K instrument. B5D1 was diluted to the experimental working concentration with equilibration buffer. The antigen was diluted to 50 nM with equilibration buffer, then diluted 3 times for 7 concentration gradients, and 2 zero concentrations (i.e. equilibration buffer) and 1 repeated concentration (generally is a repeat of lowest concentration) were set. In the order of antibody, antigen huPD-L1 (Sino Biological, #10084-H08H), and regeneration, 10 antigen concentrations (2 zero concentrations, 7 gradient concentrations, and 1 repeat concentration) were cyclically subjected to experimental analysis. The antigen injection flow rate was 30 uL/min, the binding time was 120 seconds, and the dissociation time was 600 seconds.
A general note: Surface plasmon resonance follows binding to a sensor surface in real time, without labels.

Test [3] deals with human PD-L1 protein (hybridoma screening) (human, UniProt Q9NZQ7 19-239, limits assumed). Description: SPR, hybridoma monoclone.
human PD-L1 protein (hybridoma screening), sequence (Q9NZQ7 19-239 limits assumed): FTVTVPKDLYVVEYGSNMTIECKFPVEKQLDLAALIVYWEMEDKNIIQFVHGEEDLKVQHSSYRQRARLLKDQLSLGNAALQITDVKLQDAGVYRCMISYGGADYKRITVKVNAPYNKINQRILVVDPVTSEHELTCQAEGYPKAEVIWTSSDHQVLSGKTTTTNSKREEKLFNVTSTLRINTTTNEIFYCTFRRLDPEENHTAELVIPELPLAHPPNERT

T2 sequence (Q9NZQ7 19-239 limits assumed): as above
T1 sequence (G7PSE7 entry or part of it limits assumed): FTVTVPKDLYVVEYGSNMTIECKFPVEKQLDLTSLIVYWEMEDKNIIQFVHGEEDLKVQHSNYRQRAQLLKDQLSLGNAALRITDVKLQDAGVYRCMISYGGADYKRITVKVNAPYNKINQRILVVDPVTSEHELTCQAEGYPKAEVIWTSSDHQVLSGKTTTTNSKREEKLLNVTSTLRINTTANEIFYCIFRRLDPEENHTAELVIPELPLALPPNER
T3 sequence (Q9NZQ7 19-238 limits assumed): as the sequence (G7PSE7 entry or part of it limits assumed) above, with T33A, S34A, N62S, Q68R, R82Q, L173F, A185T, I192T, L215H counted along it

B1: humanized antibody 900339 (antibody, V domains shown)
VH: QVQLVQSGAEVKKPGASVKVSCKASGYAFTGYTIHWVRQAPGQRLEWMGWFYPGSGTLKYSEKFQGRVTITRDKSLSTAYMELSSLRSEDTAVYYCARHGTGTLMAMDYWGQGTLVTVSS
VL: DVVMTQTPLSLSVTPGQPASISCKSSQSLANSYGNTYLSWYLHKPGQSPQLLIYGISNRFSGVPDRFSGSGSGTDFTLKISRVEAEDVGVYYCLQGTHQPPTFGQGTKLEIK
notes: Humanized from the chimeric antibody; Expressed in CHO-S cells; also called humanized PD-L1 monoclonal antibody
As a reminder, the EC50 is the midpoint of the concentration-response curve. The term IC50 denotes the concentration at which inhibition is half-maximal. Low values mean greater potency in that assay, high ones weaker potency in that assay. The term Kd denotes a measure of binding affinity in units of concentration. A lower Kd goes with a tighter complex. One may read the koff as the rate constant with which the complex falls apart. Low readings indicate slow dissociation, high ones fast dissociation. As a reminder, the kon is the rate constant with which the complex forms. A higher kon goes with faster complex formation. As for B1, in the test with rhPD-L1-his protein, it took 0.115 µg/mL to reach a half-maximal effect (EC50). In addition, the midpoint of the response with huPD-L1-his protein [1], the EC50, lay at 0.0485 µg/mL. The same molecule returned an IC50 with huPD-L1-moFc of 0.00242 µg/mL. In the test with huPD-L1-his protein [2], this molecule returned a Kd of 0.94 nM, a koff of 0.000219 s⁻¹ and a kon of 233000 M⁻¹ s⁻¹.

B2: 36C06-D8 (antibody, V domains shown)
VH: QVQLQQSGAELVKPGASVKLSCKASGYAFTGYTIHWVKQRSGLGLEWLGWFYPGSGTLKYNEKFKDKATLTADKSSSTVYLELSRLTSEDSAVYFCARHGTGTLMAMDYWGQGTSVTVSS
VL: DVVVTQTPLSLPVSFGDQVSISCRSSQSLANSYGNTYLSWYLHKPGQSPQLLIYGISNRFSGVPDRFSGSGSGTDFTLKISTIKPEDLGMYYCLQGTHQPPTFGGGTKLEIK
notes: also called hybridoma 36C06/D8; mouse monoclonal antibody against human PD-L1
In test [3], B2 came in with a Kd of 2.74 nM.

B3: chimeric antibody 900289 (antibody, V domains shown)
VH: B2 VH
VL: B2 VL
notes: Expressed in CHO-S cells; also called chimeric IgG1-kappa antibody; human-mouse chimeric antibody
Regarding B3, the EC50 with rhPD-L1-his protein was 0.14 µg/mL. Moreover, the EC50 with huPD-L1-his protein [1] turned out to be 0.0433 µg/mL. The molecule also yielded an IC50 in the test with huPD-L1-moFc of 0.00199 µg/mL. In the test with huPD-L1-his protein [2], this molecule displayed a dissociation constant (Kd) of 1.34 nM, a koff of 0.000312 s⁻¹ and an on-rate (kon) of 233000 M⁻¹ s⁻¹.
